This data set can be described thus: Evaluation of dissolution stability (content change on storage in dissolved state). The format is physicochemical. As to conditions: 1 mg/1 ml dissolved state, 40° C. and RH 75%.

Primed or numbered codes have the meaning given here. Where no end group is shown, it is not given here. [ ]: non-standard residue; d: D form. The star is where a group is joined. Pro(4-methylene) = C=C1CN[C@H](C(=O)O)C1; Pro(cis-4-F) = O=C(O)[C@@H]1C[C@H](F)CN1; Pro(4,4-F2) = O=C(O)[C@@H]1CC(F)(F)CN1; Pro(4,4-Me2) = CC1(C)CN[C@H](C(=O)O)C1; Asu′ = aspartimide (aminosuccinimide); Hyp = O=C(O)[C@@H]1C[C@@H](O)CN1; dHyp = O=C(O)[C@H]1C[C@H](O)CN1; Aib = CC(C)(N)C(=O)O; OiPr = CC(C)O*

For LGLAGPK [Example 20], the “Day 1 content (%)” value was determined as 98.77%, the “Day 3 content (%)” value was found to be 99.69%, the “Day 7 content (%)” value was found to be 99.66% and the “Initial content (%)” value came to 99.35%.

For “Hyp-Gly-Gln-Glu-Phenyl Gly-Leu-Ala [Example 94]”, the “Day 1 content (%)” value is reported as 98.77%, the “Day 3 content (%)” value is listed as 98.43%, the “Day 7 content (%)” value is given as 98.15% and the “Initial content (%)” value is recorded as 98.59%.

In the case of “Hyp-Gly-Gln-Glu-Gly ([Hyp]GQEG) [Example 67]”, the “Day 1 content (%)” value stood at 99.14%, the “Day 3 content (%)” value was 98.75%, the “Day 7 content (%)” value is 98.07% and the “Initial content (%)” value is listed as 98.36%.

As for PGQDGLA [Example 78], the “Day 1 content (%)” value turned out to be 92.18%, the “Day 3 content (%)” value was determined as 85.14%, the “Day 7 content (%)” value is reported as 74.01% and the “Initial content (%)” value is given as 97.41%.

As to “Hyp-Gly-Gln-Asn-Gly-Leu ([Hyp]GQNGL) [Example 81]”, the “Day 1 content (%)” value is 93.01%, the “Day 3 content (%)” value is recorded as 92.10%, the “Day 7 content (%)” value was determined as 89.51% and the “Initial content (%)” value is recorded as 95.87%.

Regarding “4,4-difluoro-Pro-Gly-Gln-Asp-Gly-Leu ([Pro(4,4-F2)]GQDGL) [Example 48]”, the “Day 1 content (%)” value was determined as 84.40%, the “Day 3 content (%)” value was 76.53%, the “Day 7 content (%)” value came to 53.82% and the “Initial content (%)” value is on record as 92.71%.

Regarding “4-methylene-Pro-Gly-Gln-Asp-Gly-Leu-Ala ([Pro(4-methylene)]GQDGLA) [Example 54]”, the “Day 1 content (%)” value came to 83.66%, the “Day 3 content (%)” value is 73.59%, the “Day 7 content (%)” value amounted to 62.48% and the “Initial content (%)” value is recorded as 95.42%.

Turning to “Hyp-Gly-Gln-Asn-Gly-Leu-Ala ([Hyp]GQNGLA) [Example 79]”, the “Day 1 content (%)” value was 97.87%, the “Day 3 content (%)” value is 81.04%, the “Day 7 content (%)” value is recorded as 76.89% and the “Initial content (%)” value was 94.36%.

Turning to “Hyp-Gly-Gln-Asu-Gly-Leu-Ala ([Hyp]GQ[Asu′]GLA) [Example 102]”, the “Day 1 content (%)” value turned out to be 90.18%, the “Day 3 content (%)” value stood at 85.07%, the “Day 7 content (%)” value came out at 81.09% and the “Initial content (%)” value came to 92.47%.

Take “cis-4F-Pro-Gly-Gln-Asp-Gly-Leu ([Pro(cis-4-F)]GQDGL) [Example 46]”: the “Day 1 content (%)” value came to 87.32%, the “Day 3 content (%)” value came to 81.37%, the “Day 7 content (%)” value was 62.32% and the “Initial content (%)” value is listed as 93.29%.

Take “Hyp-Gly-Leu-Ala-Gly-Pro-Lys ([Hyp]GLAGPK) [Example 27]”: the “Day 1 content (%)” value is listed as 98.16%, the “Day 3 content (%)” value is 98.15%, the “Day 7 content (%)” value was 98.16% and the “Initial content (%)” value turned out to be 98.24%.

With “Hyp-Gly-Gln-D Asp-Gly-Leu ([Hyp]GQ[dD]GL) [Example 61]”, the “Day 1 content (%)” value is on record as 87.65%, the “Day 3 content (%)” value came to 83.70%, the “Day 7 content (%)” value was 56.36% and the “Initial content (%)” value is on record as 92.80%.

As to “4,4-dimethyl Pro-Gly-Gln-Asp-Gly-Leu-Ala ([Pro(4,4-Me2)]GQDGLA) [Example 57]”, the “Day 1 content (%)” value came out at 75.20%, the “Day 3 content (%)” value was determined as 71.82%, the “Day 7 content (%)” value amounted to 53.88% and the “Initial content (%)” value amounted to 91.95%.

Turning to QLGLAGPK [Example 18], the “Day 1 content (%)” value came to 53.91%, the “Day 3 content (%)” value is listed as 36.72%, the “Day 7 content (%)” value is 13.41% and the “Initial content (%)” value was 82.99%.

For the substance “Hyp-Gly-Gln-Ala-Gly-Leu ([Hyp]GQAGL) [Example 122]”, the “Day 1 content (%)” value is on record as 98.66%, the “Day 3 content (%)” value is on record as 98.56%, the “Day 7 content (%)” value is reported as 98.27% and the “Initial content (%)” value is recorded as 98.82%.

As to “Hyp-Gly-Gln-Glu-Aib-Leu-Ala ([Hyp]GQE[Aib]LA) [Example 92]”, the “Day 1 content (%)” value is reported as 97.05%, the “Day 3 content (%)” value came out at 96.92%, the “Day 7 content (%)” value was 96.56% and the “Initial content (%)” value is reported as 96.92%.

Regarding “Hyp-Leu-Gln-Asp-Gly ([Hyp]LQDG) [Example 75]”, the “Day 1 content (%)” value is listed as 91.10%, the “Day 3 content (%)” value is 75.24%, the “Day 7 content (%)” value was determined as 61.06% and the “Initial content (%)” value came out at 98.53%.

For “Hyp-Gly-Gln-Asp-Gly-Val ([Hyp]GQDGV) [Example 71]”, the “Day 1 content (%)” value came out at 93.07%, the “Day 3 content (%)” value is 88.76%, the “Day 7 content (%)” value was 82.04% and the “Initial content (%)” value is reported as 95.21%.

On to GLAGPK [Example 26], for which the “Day 1 content (%)” value is recorded as 89.41%, the “Day 3 content (%)” value is listed as 87.99%, the “Day 7 content (%)” value is reported as 85.43% and the “Initial content (%)” value was found to be 92.17%.

For the substance “Hyp-Gly-Gln-Asu-Gly-Leu-Ala (isopropyl ester) [Example 113]”, the “Day 1 content (%)” value is given as 92.40%, the “Day 3 content (%)” value is recorded as 85.41%, the “Day 7 content (%)” value was found to be 72.35% and the “Initial content (%)” value amounted to 93.25%.

On to “Hyp-Gly-Gln-Asp-Gly-D Leu ([Hyp]GQDG[dL]) [Example 62]”, for which the “Day 1 content (%)” value is on record as 92.60%, the “Day 3 content (%)” value is 84.99%, the “Day 7 content (%)” value was 70.41% and the “Initial content (%)” value came out at 97.24%.

Turning to “Hyp-Gly-Gln-Asp-Val-Leu-Ala ([Hyp]GQDVLA) [Example 23]”, the “Day 1 content (%)” value was found to be 95.25%, the “Day 3 content (%)” value was determined as 94.22%, the “Day 7 content (%)” value is given as 90.56% and the “Initial content (%)” value was 96.40%.

For “Hyp-Gly-Gln-Leu-Gly-Leu-Ala-Gly ([Hyp]GQLGLAG) [Example 17]”, the “Day 1 content (%)” value stood at 96.53%, the “Day 3 content (%)” value is 96.69%, the “Day 7 content (%)” value was determined as 96.27% and the “Initial content (%)” value amounted to 96.55%.

With “4,4-difluoro-Pro-Gly-Gln-Asp-Gly ([Pro(4,4-F2)]GQDG) [Example 43]”, the “Day 1 content (%)” value is given as 86.75%, the “Day 3 content (%)” value is reported as 65.09%, the “Day 7 content (%)” value was found to be 48.43% and the “Initial content (%)” value is reported as 99.47%.

As to “Hyp-Ala-Gln-Asp-Gly ([Hyp]AQDG) [Example 73]”, the “Day 1 content (%)” value is given as 89.07%, the “Day 3 content (%)” value stood at 82.64%, the “Day 7 content (%)” value is recorded as 75.49% and the “Initial content (%)” value was determined as 92.11%.

Take “D Hyp-Gly-Gln-Asp-Gly-Leu-Ala ([dHyp]GQDGLA) [Example 50]”: the “Day 1 content (%)” value is 89.44%, the “Day 3 content (%)” value turned out to be 80.15%, the “Day 7 content (%)” value is 56.11% and the “Initial content (%)” value was found to be 96.67%.

Turning to “Hyp-Gly-Gln-Asp-Ala-Leu ([Hyp]GQDAL) [Example 36]”, the “Day 1 content (%)” value came to 94.13%, the “Day 3 content (%)” value came to 90.58%, the “Day 7 content (%)” value amounted to 85.95% and the “Initial content (%)” value is recorded as 95.40%.

Turning to “Hyp-Gly-Gln-His-Gly-Leu-Ala ([Hyp]GQHGLA) [Example 80]”, the “Day 1 content (%)” value amounted to 97.18%, the “Day 3 content (%)” value was 97.13%, the “Day 7 content (%)” value was 97.07% and the “Initial content (%)” value stood at 98.44%.

As to “Hyp-Gly-Gln-Ala-Val-Leu ([Hyp]GQAVL) [Example 124]”, the “Day 1 content (%)” value is 99.22%, the “Day 3 content (%)” value was determined as 99.11%, the “Day 7 content (%)” value was 98.97% and the “Initial content (%)” value is recorded as 99.40%.

Regarding “4,4-difluoro-Pro-Gly-Gln-Asp-Gly-Leu-Ala ([Pro(4,4-F2)]GQDGLA) [Example 53]”, the “Day 1 content (%)” value is 87.14%, the “Day 3 content (%)” value is given as 76.02%, the “Day 7 content (%)” value came to 62.88% and the “Initial content (%)” value stood at 94.88%.

As for “Asu-Gly-Leu-Ala-Gly-Pro-Lys ([Asu′]GLAGPK) [Example 105]”, the “Day 1 content (%)” value stood at 54.80%, the “Day 3 content (%)” value is recorded as 41.83%, the “Day 7 content (%)” value is recorded as 31.24% and the “Initial content (%)” value was found to be 89.11%.

Take “Hyp-Gly-Gln-Asp-Gly (isopropyl ester) [Example 106]”: the “Day 1 content (%)” value was 81.47%, the “Day 3 content (%)” value is 75.61%, the “Day 7 content (%)” value turned out to be 68.25% and the “Initial content (%)” value stood at 89.54%.

As for “cis-4F Pro-Gly-Gln-Asp-Gly-Leu-Ala ([Pro(cis-4-F)]GQDGLA) [Example 51]”, the “Day 1 content (%)” value stood at 83.35%, the “Day 3 content (%)” value is given as 72.55%, the “Day 7 content (%)” value is given as 49.31% and the “Initial content (%)” value amounted to 92.07%.

“Hyp-Gly-Gln-Asp-Gly-Pro-Lys ([Hyp]GQDGPK) [Example 28]”: the “Day 1 content (%)” value is on record as 98.50%, the “Day 3 content (%)” value was 97.37%, the “Day 7 content (%)” value was 96.19% and the “Initial content (%)” value came out at 99.14%.

Regarding “Hyp-Gly-Gln-Asp (isopropyl ester)-Gly-Leu-Ala ([Hyp]GQD(OiPr)GLA) [Example 117]”, the “Day 1 content (%)” value turned out to be 90.61%, the “Day 3 content (%)” value is 85.37%, the “Day 7 content (%)” value worked out at 76.88% and the “Initial content (%)” value is 94.77%.

On to [Hyp]GQDVLA [Example 37], for which the “Day 1 content (%)” value worked out at 98.64%, the “Day 3 content (%)” value was 97.76%, the “Day 7 content (%)” value came out at 93.55% and the “Initial content (%)” value was determined as 98.59%.

As to “Hyp-Gly-Gln-Asp-Gly-Leu (isopropyl ester) [Example 107]”, the “Day 1 content (%)” value turned out to be 76.34%, the “Day 3 content (%)” value was 65.41%, the “Day 7 content (%)” value turned out to be 58.41% and the “Initial content (%)” value is 87.55%.

For the origin of these results see patent US12428446B2, “Peptide compound or pharmaceutically acceptable salt thereof” (Eyebio Korea, priority 2019, dated 2025).
